The numbers were not newly measured in paper PMC2757418, which cites them from elsewhere.

The data set deals with netrin-1 (UniProt O95631).

As to DCC (from UniProt P43146), the Kd (commonly a measure of binding affinity in units of concentration) was 0.01 µM.
